Tests used:
[1] = test system: T1, phiCDKH01 XRE family repressor (XRE-His) (Clostridioides difficile phage phiCDKH01 (host strain CD34/Sr)), UPI000235AC6A; test: EMSA; details: 50 mM Tris-HCl pH 7.5, 50 mM NaCl, 200 mM KCl, 50 mM MgCl2, 5 mM EDTA, 5 mM DTT, 0.25 mg/mL BSA, 15 min, room temperature, 0.1 pmol DNA, 0-200 ng protein
T1 sequence: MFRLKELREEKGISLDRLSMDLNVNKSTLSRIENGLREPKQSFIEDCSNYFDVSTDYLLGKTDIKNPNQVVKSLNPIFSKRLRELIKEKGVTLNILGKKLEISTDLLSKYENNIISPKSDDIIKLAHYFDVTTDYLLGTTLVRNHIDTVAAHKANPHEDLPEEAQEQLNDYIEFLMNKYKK

[2] = molecular target: T2, phiCDKH01 XRE family repressor (XRE-His) (Clostridioides difficile phage …, UniProt UPI000235AC6A 1-181); test: EMSA; 50 mM Tris-HCl pH 7.5, 50 mM NaCl, 200 mM KCl, 50 mM MgCl2, 5 mM EDTA, 5 mM DTT, 0.25 mg/mL BSA, 15 min, room temperature; 0.1 pmol DNA, 0-200 ng protein; 5% TBE gel; details: protein: recombinant; tag encoded at 3' end by primer S4); chain copies: 2; blunt
T2 sequence: T1 sequence

CATTATAGCAACTTTTATTTACATTATAGCAACTTTTTTTGTTATTACAATTAAAATTGCCAAAAAAGCAACAAAAATATTGACTTTTAACATTTTTGTTGCTATTATATAA (double strand) [S2]
binding [1]: binds

GCAACTTTTTTTGTTATTACAATTAAAATTGCCAAAAAAGCAACAAAAATATTGACTTTTAACATTTTTGTTGCTATTATATAAACAAGAACTTGCTTATATAGCAAAAAGTTAGAGGGTGA (double strand) [S3 (Methods text says S4)]
binding [1]: binds

GTTGCTATAATGTAAATAAAAGTTGCTATAATGAAAACTACAATAAAGGATGATTTTATATGTTTAGATTAAAAGAACTGAGAGAAG (double strand) [S1]
binding [1]: binds

B1: BIND (minimal XRE-binding fragment) (dsDNA)
DNA 1: TTACAATTAAAATTGCCAAAAAAGCAACAA
DNA 2: TTGTTGCTTTTTTGGCAATTTTAATTGTAA
binding result [2]: binds
